Experimental data taken from patent publication US20200283507A1 (US Dept. of Health and Human Services, published 2020).
No end group written: not given here.

How the values were obtained:
[1] = molecular target: T1, Hu/NoV/GII.1/Hawaii/1971/U.S. VLP (human norovirus GII.1); experiment: VLP ELISA
T1 construct: mature; baculovirus VLP; VP2 may be present

[2] = molecular target: T2, Hu/NoV/Snow Mountain/GII.2/U.S. VLP (human norovirus GII.2); experiment: VLP ELISA
T2 construct: mature; baculovirus VLP; VP2 may be present

[3] = molecular target: T3, Hu/NoV/GII.2/Henryton/1971/U.S. VLP (human norovirus GII.2); experiment: VLP ELISA
T3 construct: mature; baculovirus VLP; VP2 may be present

[4] = molecular target: T4, Hu/NoV/GII.3/CHDC4031/1988/U.S. VLP (human norovirus GII.3); experiment: VLP ELISA
T4 construct: mature; baculovirus VLP; VP2 may be present

[5] = molecular target: T5, Hu/NoV/GII.4/CHDC4871/1977/U.S. VLP (human norovirus GII.4); experiment: VLP ELISA
T5 construct: mature; baculovirus VLP; VP2 may be present

[6] = molecular target: T6, Hu/NoV/GII.4/RockvilleD1/2012/U.S. VLP (human norovirus GII.4); experiment: VLP ELISA
T6 construct: mature; baculovirus VLP; VP2 may be present

[7] = molecular target: T7, Hu/NoV/GII.4/MD2004/2004/U.S. VLP (human norovirus GII.4); experiment: VLP ELISA
T7 construct: mature; baculovirus VLP; VP2 may be present; also called MD2004 VLP

[8] = molecular target: T8, Hu/NoV/GII.4/MD145-12/1997/U.S. VLP (human norovirus GII.4); experiment: VLP ELISA
T8 construct: mature; baculovirus VLP; VP2 may be present

[9] = molecular target: T9, Hu/NoV/GII.4/HS-191/2001/U.S. VLP (human norovirus GII.4); experiment: VLP ELISA
T9 construct: mature; baculovirus VLP; VP2 may be present

[10] = molecular target: T10, Hu/GII.6/Bethesda/2012/U.S. VLP (human norovirus GII.6); experiment: VLP ELISA
T10 construct: mature; baculovirus VLP; VP2 may be present

[11] = molecular target: T11, Hu/NoV/GII.7/DC119/U.S. VLP (human norovirus GII.7); experiment: VLP ELISA
T11 construct: mature; baculovirus VLP; VP2 may be present

[12] = molecular target: T12, Hu/NoV/GII.14/M7/1999/U.S. VLP (human norovirus GII.14); experiment: VLP ELISA
T12 construct: mature; baculovirus VLP; VP2 may be present

[13] = molecular target: T8, Hu/NoV/GII.4/MD145-12/1997/U.S. VLP; experiment: cell-based or functional assay
[14] = molecular target: T13, Toronto VP1 peptide 512-528 (NoV Toronto strain, also: biotinylated (position not given here)); experiment: ELISA on biotinylated peptide
T13 construct: 17-mer of the P domain peptide library, captured on neutravidin plates
T13 peptide: GYFRFESWVNPFYTLAP
Method: (§1) For this assay, a peptidic library of 67 peptides corresponding to the P domain of the VP1 amino acid sequence from NoV Toronto strain was synthetized. The peptides were 17 amino acids long, with 5 amino acids overlapping with the previous and the next peptide of the sequence. Neutravidin coated plates (PIERCE®) were used for this assay. The plates were coated with each biotinylated peptide in duplicates (2 μl of peptide/100 μl of PBS 0.1% BSA per well) overnight at 4° C. Then, after washing the plates, 100 ng/well of 7.5 VHH were added and the plates were incubated for 2 hours at room temperature. The plates were washed and incubated with rabbit anti-VHH serum (1/8,000) and HRP-conjugated goat anti-rabbit immunoglobulin G (1:2,000) (KPL). The signal was developed with ABTS/H₂O₂.

[15] = molecular target: T14, Toronto VP1 peptide 517-533 (NoV Toronto strain, also: biotinylated (position not given here)); experiment: ELISA on biotinylated peptide
T14 construct: 17-mer of the P domain peptide library
T14 peptide: ESWVNPFYTLAPMGTGN
Method: as §1

[16] = molecular target: T15, Toronto VP1 peptide 507-523 (NoV Toronto strain, also: biotinylated (position not given here)); experiment: ELISA on biotinylated peptide
T15 construct: 17-mer of the P domain peptide library
T15 peptide: TVPPNGYFRFESWVNPF
Method: as §1

[17] = molecular target: T16, Toronto VP1 peptide 522-538 (NoV Toronto strain, also: biotinylated (position not given here)); experiment: ELISA on biotinylated peptide
T16 construct: 17-mer of the P domain peptide library
T16 peptide: PFYTLAPMGTGNGRRRI
Method: as §1

B1: VHH 7.5 (VHH)
VHH: QVKLQESGGGLVQAGESLRLSCAASGSNFSINGVGWYRQAPGKQRELVAGITNGGYTSYADSVKGRFTISTDNAKNTVYLQMNSLRPEDTAVYYCNANFQIHRSGADYVRNYWGQGTQVTVSA
notes: llama VHH, MD2004 library; pHEN6, C-terminal His6 tag; also called clone 7.5
[1]
  minimum concentration of VHH able to recognize 100 ng of VLP: 1 ng/well
[2]
  minimum concentration of VHH able to recognize 100 ng of VLP: 2 ng/well
[3]
  minimum concentration of VHH able to recognize 100 ng of VLP: 1 ng/well
[4]
  minimum concentration of VHH able to recognize 100 ng of VLP: 1 ng/well
[5]
  minimum concentration of VHH able to recognize 100 ng of VLP: 2 ng/well
[6]
  minimum concentration of VHH able to recognize 100 ng of VLP: 0.5 ng/well
[7]
  minimum concentration of VHH able to recognize 100 ng of VLP: 0.5 ng/well
[8]
  minimum concentration of VHH able to recognize 100 ng of VLP: 0.5 ng/well
[9]
  minimum concentration of VHH able to recognize 100 ng of VLP: 2 ng/well
[10]
  minimum concentration of VHH able to recognize 100 ng of VLP: 1 ng/well
[11]
  minimum concentration of VHH able to recognize 100 ng of VLP: 1 ng/well
[12]
  minimum concentration of VHH able to recognize 100 ng of VLP: 1 ng/well
[13]
  HAI titer, B Rh+ RBC: 0.78 µg/mL
[14]
  binding result: binds
[15]
  binding result: binds
[16]
  binding result: no binding (tested: 100 ng/well)
[17]
  binding result: no binding (tested: 100 ng/well)
